Reference: article PMC4833825

Target: recombinant S. pombe eIF2B, one set of the five subunits (α, β, γ, δ, ε), tags cleaved (S. pombe) (UniProt Q9USP0)
Test: SEC; purified complex after HRV 3C cleavage of the tags; Sephacryl S-300, then Superose 6 with HMW calibration kit, buffer C (20 mM HEPES-KOH pH 7.5, 150 mM KCl, 5 % glycerol, 1 mM DTT), 277 K; SDS-PAGE of the purified complex

stoichiometry N: 2
Substance: recombinant S. pombe eIF2B, one set of the five subunits (α, β, γ, δ, ε), tags cleaved, Q9USP0 1-341; Q9UT76 1-393; P56288 1-458; Q09924 1-467; P56287 1-678
